Test results: patent publication US20250197485A1, “Anti-ED-A Antibodies for the Treatment of Pulmonary Hypertension” (Universitätsklinikum Jena, priority 2022, published 2025)

Columns and labels:
[1] = test system: MCT-induced PH; assay: Echocardiographic assessment in mouse model of MCT-induced PH; type: in vivo, C57BL/6 mice
Source text: PH was induced in C57BL/6 mice (bodyweight: 25-30 g). The animals were obtained from ZET facility (Zentale Experimentelle Tierhaltung) of the University Hospital Jena (UKJ, Jena, Germany). Prior to PH induction, mice were allowed to acclimatize for at least 7 days with ad libitum access to food and water as well as controlled light/dark cycles. 41 animals were investigated divided into the following five experimental groups: • 1) sham induced controls (n=7) • 2) MCT induced PH (n=12) • 3) MCT induced PH+MAC (n=6) • 4) MCT induced PH+F8 IgG (n=8) • 5) MCT induced PH+KSF IgG (n=8) For PH induction, the Monocrotaline (MCT, Carl Roth, Germany) method was used. The sham induced controls were injected with 30 μl NaCl not containing MCT at day 1 (single dose; intraperitoneally, i.p.). […] The other 4 experimental groups were injected with MCT to induce PH (single dose; intraperitoneally, i.p.; 60 mg/kg body weight; volume 30 μl). Animals in the MCT induced PH+MAC group received the drug (Macitentan, Actelion Pharmaceuticals Ltd.) from day 14 to day 28 (once daily; per os; 15 mg/kg body weight). Animals in the MCT induced PH+F8 IgG group received F8 IgG 3 times on day 14, 16 and 18 (intravenously, i.v.; 195 μg/injection; volume 200 μl). Similarly, animals in the MCT induced PH+KSF IgG group received KSF IgG 3 times on day 14, 16 and 18 (intravenously, i.v.; 195 μg/injection; volume 120 μl). Echocardiographic assessment was performed on day 28 using the Vevo 770 Rodent-Ultrasound-System, Visual Sonic, Canada, 17 MHz probe RMV176. Before echocardiography, mice were anesthetized with isoflurane for a duration time of less than 10 minutes (isoflurane-CP, 2.5V %, FiO2 1.0, oxygen per inhalation-flow dosage). Body temperature and respiratory rate were continuously monitored. All surrogate parameters of right ventricular (RV) morphology and function were assessed, among others, RV basal and medial diameters (in mm), RV length (in mm), tricuspid annular plane systolic excursion (TAPSE, in mm), right atrial area (RA area, in mm^2) or main pulmonary artery diameter (MPA, in mm). Statistical analyses were performed using IBM SPSS statistical software, version 28.0 (IBM SPSS Statistics for Windows. Armonk, NY, USA). Data are expressed as mean±standard deviation. Kruskal-Wallis and Mann-Whitney-U test were used to test for significant differences between the different groups. A p-value<0.05 as statistically significant.

[2] = test system: MCT-induced PH; assay: Mouse model of MCT-induced PH, overall hemodynamic, echocardiographic and histopathological evaluation; type: in vivo, C57BL/6 mice; conditions: compared with MAC treatment
Source text: PH was induced in C57BL/6 mice (bodyweight: 25-30 g). The animals were obtained from ZET facility (Zentale Experimentelle Tierhaltung) of the University Hospital Jena (UKJ, Jena, Germany). Prior to PH induction, mice were allowed to acclimatize for at least 7 days with ad libitum access to food and water as well as controlled light/dark cycles. 41 animals were investigated divided into the following five experimental groups: • 1) sham induced controls (n=7) • 2) MCT induced PH (n=12) • 3) MCT induced PH+MAC (n=6) • 4) MCT induced PH+F8 IgG (n=8) • 5) MCT induced PH+KSF IgG (n=8) For PH induction, the Monocrotaline (MCT, Carl Roth, Germany) method was used. […] The clinical condition was assessed using an established score (clinical severity score=CSS) from 1 to 5 (1=no signs of clinical alterations, 2=low-grade impairment, 3=mid-grade impairment, 4=high-grade impairment, 5=exitus) obtained by evaluating spontaneous activity, reaction to exogenous stimuli and posture. […] Body temperature and respiratory rate were continuously monitored. All surrogate parameters of right ventricular (RV) morphology and function were assessed, among others, RV basal and medial diameters (in mm), RV length (in mm), tricuspid annular plane systolic excursion (TAPSE, in mm), right atrial area (RA area, in mm^2) or main pulmonary artery diameter (MPA, in mm). […] Data are expressed as mean±standard deviation. […]

B1: F8 IgG: Chimaeric anti-ED-A antibody: human F8 VH/VL fused to murine IgG2a constant regions; heavy chain SEQ ID NO: 11, light chain SEQ ID NO: 12 (antibody)
heavy: EVQLLESGGGLVQPGGSLRLSCAASGFTFSLFTMSWVRQAPGKGLEWVSAISGSGGSTYYADSVKGRFTISRDNSKNTLYLQMNSLRAEDTAVYYCAKSTHLYLFDYWGQGTLVTVSSAKTTAPSVYPLAPVCGDTTGSSVTLGCLVKGYFPEPVTLTWNSGSLSSGVHTFPAVLQSDLYTLSSSVTVTSSTWPSQSITCNVAHPASSTKVDKKIEPRGPTIKPCPPCKCPAPNLLGGPSVFIFPPKIKDVLMISLSPIVTCVVVDVSEDDPDVQISWFVNNVEVHTAQTQTHREDYNSTLRVVSALPIQHQDWMSGKEFKCKVNNKDLPAPIERTISKPKGSVRAPQVYVLPPPEEEMTKKQVTLTCMVTDFMPEDIYVEWTNNGKTELNYKNTEPVLDSDGSYFMYSKLRVEKKNWVERNSYSCSVVHEGLHNHHTTKSFSRTPGK
light: EIVLTQSPGTLSLSPGERATLSCRASQSVSMPFLAWYQQKPGQAPRLLIYGASSRATGIPDRFSGSGSGTDFTLTISRLEPEDFAVYYCQQMRGRPPTFGQGTKVEIKRTDAAPTVSIFPPSSEQLTSGGASVVCFLNNFYPKDINVKWKIDGSERQNGVLNSWTDQDSKDSTYSMSSTLTLTKDEYERHNSYTCEATHKTSTSPIVKSFNRNEC
For B1, the “RV medial diameter compared to the negative controls” value ([1]; day 28, all groups p<0.05, F8 IgG p=0.028) was “significantly increased”, the “RV basal diameter compared with the MCT-induced PH group without treatment” value ([1]; day 28, p=0.002) was “significant attenuation” and the “RA area compared with the MCT-induced PH group with MAC treatment” value ([1]; day 28, p=0.003) was “significant reduction”. For the same molecule, the “TAPSE compared to the MCT-induced PH group with MAC treatment” value ([1]; day 28, p=0.003) was “significant improvement”, the “TAPSE compared to the MCT-induced PH group without treatment” value ([1]; day 28, p=0.004) was “significant improvement” and the “RV basal diameter compared with the MCT-induced PH group with KSF IgG treatment” value ([1]; day 28, p=0.005) was “significant attenuation”. The “RV basal diameter compared with the MCT-induced PH group with MAC treatment” value ([1]; day 28, p=0.005) was “significant attenuation”, the “RA area compared with the MCT-induced PH group with KSF IgG treatment” value ([1]; day 28, p=0.009) was “significant reduction” and the “RV medial diameter compared with the MCT-induced PH group with KSF IgG treatment” value ([1]; day 28, p=0.010) was “significantly reduced”. The “RV medial diameter compared with the MCT-induced PH group without treatment” value ([1]; day 28, p=0.017) was “significantly reduced”, the “RA area compared with the MCT-induced PH group without treatment” value ([1]; day 28, p=0.021) was “significant reduction” and the “TAPSE compared to the MCT-induced PH group with KSF IgG treatment” value ([1]; day 28, p=0.049) was “significant improvement”. For the same molecule, the “echocardiographic signs of right ventricular load and dysfunction” value ([1]; in contrast to treatment with KSF IgG) was “improvement” and the “beneficial effects with respect to the majority of the parameters (RVPsys, echocardiographic signs, lung tissue damage)” value [2] was “superior to MAC treatment”.
